{
  "source": "patent US20230064326A1",
  "about": "“OPTOGENETIC COMPOSITIONS COMPRISING A CBh PROMOTER SEQUENCE AND METHODS FOR USE” (Vedere Bio II, Inc., priority 2021, published 2023)",
  "molecules": {"B1": {"name": "CBh promoter: promoter of SEQ ID NO: 1: CMV enhancer, chicken beta actin promoter and hybrid intron; in b245 driving SNAP-mGluR2 (nucleic acid)", "DNA": "CGTTACATAACTTACGGTAAATGGCCCGCCTGGCTGACCGCCCAACGACCCCCGCCCATTGACGTCAATAATGACGTATGTTCCCATAGTAACGCCAATAGGGACTTTCCATTGACGTCAATGGGTGGAGTATTTACGGTAAACTGCCCACTTGGCAGTACATCAAGTGTATCATATGCCAAGTACGCCCCCTATTGACGTCAATGACGGTAAATGGCCCGCCTGGCATTATGCCCAGTACATGACCTTATGGGACTTTCCTACTTGGCAGTACATCTACGTATTAGTCATCGCTATTACCATGGTCGAGGTGAGCCCCACGTTCTGCTTCACTCTCCCCATCTCCCCCCCCTCCCCACCCCCAATTTTGTATTTATTTATTTTTTAATTATTTTGTGCAGCGATGGGGGCGGGGGGGGGGGGGGGGCGCGCGCCAGGCGGGGCGGGGCGGGGCGAGGGGCGGGGCGGGGCGAGGCGGAGAGGTGCGGCGGCAGCCAATCAGAGCGGCGCGCTCCGAAAGTTTCCTTTTATGGCGAGGCGGCGGCGGCGGCGGCCCTATAAAAAGCGAAGCGCGCGGCGGGCGGGAGTCGCTGCGACGCTGCCTTCGCCCCGTGCCCCGCTCCGCCGCCGCCTCGCGCCGCCCGCCCCGGCTCTGACTGACCGCGTTACTCCCACAGGTGAGCGGGCGGGACGGCCCTTCTCCTCCGGGCTGTAATTAGCTGAGCAAGAGGTAAGGGTTTAAGGGATGGTTGGTTGGTGGGGTATTAATGTTTAATTACCTGGAGCACCTGCCTGAAATCACTTTTTTTCAG", "modifications": "misc_feature 1..812 CBH promoter sequence", "notes": "in b245 driving SNAP-mGluR2"}},
  "test_system": "NHP retinas",
  "experiment": "SNAP immunostaining to visualize SNAP-mGluR2 expression in NHP retinas",
  "format": "in vivo, Cynomolgus macaques and African Green monkeys",
  "details": "non-human primates; central and peripheral retina",
  "data": [
    {"molecule": "B1", "values": [
      {"measurement": "expression of a SNAP-mGluR2 transgene, promoter comparison (CBh vs synapsin)", "value": "much more robust expression"}
    ]}
  ]
}
